Article PMC7010609 (2020)

T1: Xenopus laevis StrepII-FANCD2 (Xenopus laevis)
T1 chain: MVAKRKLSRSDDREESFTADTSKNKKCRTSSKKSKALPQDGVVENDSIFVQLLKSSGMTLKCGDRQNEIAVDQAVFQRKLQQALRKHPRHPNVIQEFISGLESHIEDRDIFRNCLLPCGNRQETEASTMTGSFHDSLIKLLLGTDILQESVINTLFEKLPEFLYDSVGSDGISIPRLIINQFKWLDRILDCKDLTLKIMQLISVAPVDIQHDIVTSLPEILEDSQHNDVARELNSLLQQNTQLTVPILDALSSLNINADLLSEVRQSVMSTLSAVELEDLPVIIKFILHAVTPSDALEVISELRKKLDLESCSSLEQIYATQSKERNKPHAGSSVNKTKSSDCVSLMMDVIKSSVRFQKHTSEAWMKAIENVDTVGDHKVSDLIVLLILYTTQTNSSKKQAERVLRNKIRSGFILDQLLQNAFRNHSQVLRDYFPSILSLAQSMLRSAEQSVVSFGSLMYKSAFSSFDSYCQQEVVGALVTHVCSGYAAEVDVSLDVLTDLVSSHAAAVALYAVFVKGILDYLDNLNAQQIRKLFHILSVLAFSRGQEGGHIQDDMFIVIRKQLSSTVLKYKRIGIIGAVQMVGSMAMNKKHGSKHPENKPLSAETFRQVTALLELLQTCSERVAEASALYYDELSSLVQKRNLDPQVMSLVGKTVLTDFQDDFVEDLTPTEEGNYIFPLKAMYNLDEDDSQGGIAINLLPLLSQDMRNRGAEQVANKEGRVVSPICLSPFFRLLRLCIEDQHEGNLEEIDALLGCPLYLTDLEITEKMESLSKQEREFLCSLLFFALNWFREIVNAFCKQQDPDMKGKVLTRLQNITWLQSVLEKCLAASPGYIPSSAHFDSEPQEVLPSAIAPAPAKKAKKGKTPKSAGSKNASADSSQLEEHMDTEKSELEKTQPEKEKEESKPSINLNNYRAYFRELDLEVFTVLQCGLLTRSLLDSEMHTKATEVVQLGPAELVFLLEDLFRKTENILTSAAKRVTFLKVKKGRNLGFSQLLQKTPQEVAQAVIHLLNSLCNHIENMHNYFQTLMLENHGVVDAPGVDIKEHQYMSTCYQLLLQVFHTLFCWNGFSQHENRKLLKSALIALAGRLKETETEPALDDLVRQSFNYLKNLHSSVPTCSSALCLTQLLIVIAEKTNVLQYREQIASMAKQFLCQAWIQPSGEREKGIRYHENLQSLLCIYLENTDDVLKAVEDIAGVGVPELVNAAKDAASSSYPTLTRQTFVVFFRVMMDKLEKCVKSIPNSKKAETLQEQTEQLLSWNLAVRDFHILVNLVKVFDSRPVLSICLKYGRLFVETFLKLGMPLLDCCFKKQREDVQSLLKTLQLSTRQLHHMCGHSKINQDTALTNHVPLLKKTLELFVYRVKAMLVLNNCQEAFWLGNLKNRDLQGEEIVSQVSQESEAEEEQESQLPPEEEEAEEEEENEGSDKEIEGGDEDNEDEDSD

T2: Xenopus laevis StrepII-FANCD2
T2 chain: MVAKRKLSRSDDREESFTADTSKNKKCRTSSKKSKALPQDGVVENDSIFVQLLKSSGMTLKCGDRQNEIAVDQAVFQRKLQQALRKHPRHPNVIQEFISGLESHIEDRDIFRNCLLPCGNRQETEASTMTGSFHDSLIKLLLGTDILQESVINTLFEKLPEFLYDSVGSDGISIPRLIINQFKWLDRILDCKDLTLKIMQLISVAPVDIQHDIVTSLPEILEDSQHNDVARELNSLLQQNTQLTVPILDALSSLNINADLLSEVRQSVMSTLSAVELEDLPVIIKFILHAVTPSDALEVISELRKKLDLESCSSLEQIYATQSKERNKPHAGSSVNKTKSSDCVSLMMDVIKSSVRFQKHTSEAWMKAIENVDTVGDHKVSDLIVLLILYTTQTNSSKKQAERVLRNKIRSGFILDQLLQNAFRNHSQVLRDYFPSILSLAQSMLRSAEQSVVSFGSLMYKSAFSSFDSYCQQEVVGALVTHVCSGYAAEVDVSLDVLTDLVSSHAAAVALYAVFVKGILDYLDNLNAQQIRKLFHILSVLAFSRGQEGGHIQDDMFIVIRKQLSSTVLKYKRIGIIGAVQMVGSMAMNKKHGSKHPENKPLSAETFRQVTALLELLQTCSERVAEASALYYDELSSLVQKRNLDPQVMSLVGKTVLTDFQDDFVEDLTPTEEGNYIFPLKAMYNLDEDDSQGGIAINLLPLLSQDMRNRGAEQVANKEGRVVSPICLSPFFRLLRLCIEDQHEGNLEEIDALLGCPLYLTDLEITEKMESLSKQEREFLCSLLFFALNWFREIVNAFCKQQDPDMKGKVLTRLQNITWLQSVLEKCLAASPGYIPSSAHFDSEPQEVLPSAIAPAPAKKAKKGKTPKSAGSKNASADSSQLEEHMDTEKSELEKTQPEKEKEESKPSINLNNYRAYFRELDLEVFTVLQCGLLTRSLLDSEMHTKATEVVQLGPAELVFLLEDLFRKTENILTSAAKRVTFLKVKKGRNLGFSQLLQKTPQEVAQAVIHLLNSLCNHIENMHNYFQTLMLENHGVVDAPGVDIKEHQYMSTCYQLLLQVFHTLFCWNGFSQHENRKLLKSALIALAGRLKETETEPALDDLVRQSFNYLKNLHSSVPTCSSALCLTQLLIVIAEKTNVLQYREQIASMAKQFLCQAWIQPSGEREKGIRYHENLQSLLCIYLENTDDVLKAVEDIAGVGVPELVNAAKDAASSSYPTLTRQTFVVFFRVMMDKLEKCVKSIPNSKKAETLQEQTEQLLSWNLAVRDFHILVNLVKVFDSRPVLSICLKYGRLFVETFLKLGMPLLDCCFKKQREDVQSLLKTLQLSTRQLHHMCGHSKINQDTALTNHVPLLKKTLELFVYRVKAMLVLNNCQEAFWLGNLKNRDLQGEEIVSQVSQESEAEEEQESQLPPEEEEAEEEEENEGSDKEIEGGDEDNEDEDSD


Tests used:
[1] = target: T1, Xenopus laevis StrepII-FANCD2; test: BLI
[2] = target: T1, Xenopus laevis StrepII-FANCD2; test: BLI
[3] = target: T2, Xenopus laevis StrepII-FANCD2; test: Biolayer interferometry (BLItz); details: chain shown with the change; StrepII-FANCD2-loaded biosensors in 20 ng/mL solution; FANCI 62.5-1000 nM

Row | Binder | Kd [1] | koff [2] | Kd [3] | koff [3]
1 | Xenopus laevis Flag-FANCI S6D phosphomimic mutant (natural protein, Full length assumed, since construct limits are not printed. Flag tag left out. The L homeolog is assumed; if it has no entry or the checks fail, try fanci.S or fanci. Expressed in Hi5 insect cells.) MDQKILSLAAEEQNDGLQSCLQNLKETELSEIITKHAVKGKDCGALLRGVFKGSPCSHDVAVRRRLAVYRHCIQLVESGDLQREVASEIMGLLMLEVHHFPGASLIELANLFADAVKAGTLSNGKSLDLFPTVLTALSSKESLAYGKGELTGEEFKKQLINSLCSSRWDPQSVIFLTSMFRDVSLSAEELQFVVEKVLRMLSKLDLQEMPPLVYQLLLLSAKGSKKNIVEGIITIFNDLDQKQLVQQENSESLDLEDATIPQDQLHHVEGTIILHIVFAIKLDQELGRELLKYLKAGQQGDTSKILCPFSAALLLSVSRIHRFQEQVFDFLKSTILRGYKDLQFHQSSKFLQDLVPQPVCVSSILLETVKNSVYGWDHVTQGLVELGFILMDSFGPKAAFGNKVVELISVHSRTPSQQACQLGSRILLETFKVHEPIRSEILEQVLNRVITKAATPVTHFIDLLSDIVVSAPLILQNSSSKVTEAFDHLSFLPLTTVQGLLKAVQPLLKISMSMRDSLILVLRKAMFSSQIDARKSAVAGFLLLLRNFKVLGSLSSDQCDQAIGADQIQVDVHMRYNAAANEAFCLEILGSLRRCLDQQADVRLMLYEGFYDVLRRNDQLASSVMQTLLDQLKRYYEPEPDLLPPLKLEGCITAQGDHIFLQEPLAHLLCCIHHCLQWYKSSLQQHRNPDEDDDDDDQTGCQQDLNDIMESITRRMIKCDLEDFELDKSADFSLASGVGVKNNIYAVLVMGICEVLIEYNFIIANFSKSKFEDILGLFKCYSKLSDILKEKAAKGRQPGNNKTARSLISMTFVSTLLTALFRDSTRSHEESLSILRANVDFMRYSVCVALQKIQQLEETGVTDGPDGQNSEKMFRSLCEITRVLMWRYTSIPAAAENPGKKDKGKTISLLCLEGLLRVFNTVQQRYPSKIPQFLTALDALGDEDEEGSREINVTEKAAFQIKQFQRSLINQLSGGEDDFNSKEALLLVSILSTLSRLLAPSSQQFVQMLSWTVKICKETNIEDVQFCKGIMNLLFSLHVQFKSPVSVLRELCQDIHGHLGDIDQDIEVEKQSHFATVSLKTAAPTVTLLVLGQAAKVLEEVDWLIIKLKGLLGSEKLSTEDLTQTSNARVPIEKAIILQLGTLLTACHELVQTALPAGSCTDTLLKELAKMYTILTSVVKYYLQICSSHGGQISARLEKLVKLSGSHLTPQCYAFITYVQNIHSESLSLAAEKKKKKKEEALTVTSAKILRDTKPIPNLIFAIEQYEKFLIHLSKKSKVNLMQYMKLSTSRDFRINAATLDAALQEKGSEDEENEPDNEQAVTEEESQEPKKKRRRK | 136 nM | 0.0061 s⁻¹ |  | 
2 | Xenopus laevis Flag-FANCI wild type S557D; S560D; S566D; S597D; S618D; S630D (protein) MDQKILSLAAEEQNDGLQSYLQNLKETELSEIITKHAVKGKDCGALLRGVFKGSPCSHDVAVRRRLAVYRHCIQLVESGDLQREVASEIMGLLMLEVHHFPGASLIELANLFADAVKAGTLSNGKSLDLFPTVLTALSSKESLAYGKGELTGEEFKKQLINSLCSSRWDPQSVIFLTSMFRDVSLSAEELQFVVEKVLRMLSKLDLQEMPPLVYQLLLLSAKGSKKNIVEGIITIFNDLDQKQLVQQENSESLDLEDATIPQDQLHHVEGTIILHIVFAIKLDQELGRELLKYLKAGQQGDSSKILCPFSAALLLSVSRIHRFQEQVFDFLKSTILRDYKDLQFHQSSKFLQDLVPQPVCVSSILLETVKNSVYGWDHVTQGLVELGFILMDSFGPKAAFGNKVVELISVHSRTPSQQACQLGSRILLETFKVHEPIRSEILEQVLNRVITKAATPVTHFIDLLSDIVVSAPLILQNSSSKVTEAFDHLSFLPLTTVQGLLKAVQPLLKISMSMRDSLILVLRKAMFSSQIDARKSAVAGFLLLLRNFKVLGSLSSDQCDQAIGADQIQVDVHMRYNAAANEAFCLEILGSLRRCLDQQADVRLMLYEGFYDVLRRNDQLASSVMQTLLDQLKRYYEPEPDLLPPLKLEGCITAQGDHIFLQEPLAHLLCCIHHCLQWYKSSLQQHRNPDEDDDDDDQTGCQQDLNDIMESITRRMIKCDLEDFELDKSADFSLASGVGVKNNIYAVLVMGICEVLIEYNFIIANFSKSKFEDILGLFKCCSKLSDILKEKAAKGRQPGNNKTARSLISMTFVSTLLTALFRDSTRSHEESLSILRANVDFMRYSVCVALQKIQQLEETGVTDGPDGQNSEKMFRSLCEITRVLMWRYTSIPAAAENPGKKDKGKTISLLCLEGLLRVFNTVQQRYPSKIPQFLTALDALGDEDEEGSREINVTEKAAFQIKQFQRSLINQLSGGEDDFNSKEALLLVSILSTLSRLLAPSSQQFVQMLSWTVKICKETNIEDVQFCKGIMNLLFSLHVQFKSPVSVLRELCQDIHGHLGDIDQDIEVEKQSHFATVSLKTAAPTVTLLVLGQAAKVLEEVDWLIIKLKGLLGSEKLSTEDLTQTSNARVPIEKAIILQLGTLLTACHELVQTALPAGSCTDTLLKELAKMYTILTSVVKYYLQICSSHGGQISARLEKLVKLSGSHLTPQCYAFITYVQNIHSESLSLAAEKKKKKKEEALTVTSAKILRDTKPIPNLIFAIEQYEKFLIHLSKKSKVNLMQYMKLSTSRDFRINAATLDAALQEKGSEDEENEPDNEQAVTEEESQEPKKKRRRK |  |  | 136 nM | 0.0061 s⁻¹
